Source: patent publication US20230136301A1, “Corticosteriod Reduction in Treatment with Anti-CD38 Antibody” (Janssen Biotech, Inc., priority 2021, published 2023)
“And” between values parts separate entries of the source, which are not always exact repeats. Identical values can stand only once.

Test system: patients with RRMM
Assay: PAVO Part 3: treatment-emergent adverse events with DARA SC and corticosteroid tapering
Description: The PAVO (MMY1004) trial is an open-label, nonrandomized, multicenter, phase lb study consisting of 3 parts. […] Safety was assessed, with an emphasis on IRRs, while corticosteroids were reduced and discontinued.
The purpose of Part 3 was to evaluate the safety of daratumumab 1,800 mg SC delivery without predose and postdose corticosteroids after a 3-week, 2-week, and 1-week tapering schedule to assess the safety of corticosteroid-free SC daratumumab administration. A total of 42 participants were treated. […] In conjunction, patients also received a 3-week, 2-week, or 1-week steroid tapering schedule (FIG. 2). The 3-week tapering schedule (corticosteroid-free by Cycle 1 Day 22) consisted of methylprednisolone (MP) given orally (PO)/IV pre-dose (Cycle 1 Day 1, 100 mg; Cycle 1 Day 8, 60 mg; Cycle 1 Day 15, 30 mg) and PO post-dose (Cycle 1 Day 1, 20 mg for 2 days; Cycle 1 Day 8, 20 mg for 1 day; Cycle 1 Day 15, 20 mg for 1 day). The 2-week tapering schedule (corticosteroid-free by Cycle 1 Day 15) consisted of MP given PO/IV pre-dose (Cycle 1 Day 1, 100 mg; Cycle 1 Day 8, 60 mg) and PO post-dose (Cycle 1 Day 1, 20 mg for 2 days; Cycle 1 Day 8, 20 mg for 1 day). The 1-week tapering schedule (corticosteroid-free by Cycle 1 Day 8) consisted of dexamethasone 20 mg administered IV pre-dose on Cycle 1 Day 1, without post-dose administration.
The 3-week, 2-week and 1-week steroid tapering schedules were assessed by “3+3” design, followed by cohort expansion to approximately 15 patients (3-week and 2-week tapering cohorts) or 12 patients (1-week tapering cohort). The dose-limiting toxicity (DLT) assessment period in the 3-week, 2-week and 1-week tapering cohorts were Cycle 1 Day 1 through Cycle 2 Day 4, Cycle 1 Day 1 through Cycle 1 Day 25, and Cycle 1 Day 1 through Cycle 1 Day 11, respectively. […] Grade 3 or 4 IRRs only qualified as DLTs if they occurred during corticosteroid reduction or discontinuation (not during Cycle 1 Day 1). For the 3-week and 2-week groups, IRRs reported at Cycle 1 Day 1 were not considered DLTs, as corticosteroids had not yet been reduced or discontinued. Up to approximately 12 patients could be enrolled in the 1-week tapering schedule to assess safety, including IRRs.
Safety assessments included treatment-emergent adverse events (TEAEs), serious adverse events, and IRRs. All toxicities were graded according to the National Cancer Institute's Common Terminology for the Classification of Adverse Events (NCI-CTCAE) Version 4.03 (National Cancer Institute. Common Terminology Criteria for Adverse Events (CTCAE): Version 4.03.).
The safety and efficacy populations, defined as all patients who received ≥1 dose of study drug, was the primary population for analysis. […] The pharmacokinetic-evaluable population was defined as all patients who received ≥1 dose of study drug and provided ≥1 post-infusion pharmacokinetic sample. The immunogenicity population was defined as all patients who received ≥1 dose of study drug and provided ≥1 post-infusion immunogenicity sample.

## DARA SC: 1,800 mg daratumumab co-formulated with 30,000 U rHuPH20 (2,000 U/mL, 15 mL), manual subcutaneous injection
1-week taper
  Grade ≥3 TEAEs, participants: 33.3%
  Nausea, participants: 16.7%
  Nervous system disorders: 16.7%
1-week taper n=12
  Anemia, any grade TEAE: 4 (33.3) n (%) and 4 (33.3%) n (%)
  Anemia, grade ≥3 TEAE: 2 (16.7%) n (%) and 2 (16.7) n (%)
  Any TEAE: 12 (100)^ n (%) and 12 (100.0%) n (%)
  Any grade ≥3 TEAE: 4 (33.3) n (%) and 4 (33.3%) n (%)
  Arthralgia, any grade TEAE: 3 (25.0) n (%) and 3 (25.0%) n (%)
  Asthenia, any grade TEAE: 4 (33.3) n (%) and 4 (33.3%) n (%)
  Back pain, TEAE: 2 (16.7%) n (%)
  Blood and lymphatic system disorders (SOC), TEAE: 4 (33.3%) n (%)
  Blood and lymphatic system disorders (SOC), grade 3 or higher TEAE: 2 (16.7%) n (%)
  Bone pain, TEAE: 2 (16.7%) n (%)
  Bone pain, grade ≥3 TEAE: 1 (8.3) n (%) and 1 (8.3%) n (%)
  Chills, TEAE: 2 (16.7%) n (%)
  Constipation, TEAE: 2 (16.7%) n (%)
  Cough, any grade TEAE: 0 n (%)
  Decreased appetite, TEAE: 1 (8.3%) n (%)
  Diarrhea, any grade TEAE: 4 (33.3) n (%) and 4 (33.3%) n (%)
  Dizziness, any grade TEAE: 0 n (%)
  Erythema, any grade TEAE: 0 n (%)
  Fatigue, any grade TEAE: 1 (8.3) n (%) and 1 (8.3%) n (%)
  Gastrointestinal disorders (SOC), TEAE: 8 (66.7%) n (%)
  General disorders and administration site conditions (SOC), TEAE: 9 (75.0%) n (%)
  Headache, any grade TEAE: 1 (8.3) n (%) and 1 (8.3%) n (%)
  Lymphopenia, grade ≥3 TEAE: 1 (8.3) n (%) and 1 (8.3%) n (%)
  Metabolism and nutrition disorders (SOC), TEAE: 1 (8.3%) n (%)
  Muscle spasms, any grade TEAE: 3 (25.0) n (%)
  Musculoskeletal and connective tissue disorders (SOC), TEAE: 8 (66.7%) n (%)
  Musculoskeletal and connective tissue disorders (SOC), grade 3 or higher TEAE: 1 (8.3%) n (%)
  Nasopharyngitis, any grade TEAE: 1 (8.3) n (%) and 1 (8.3%) n (%)
  Nausea, any grade TEAE: 2 (16.7) n (%) and 2 (16.7%) n (%)
  Nervous system disorders (SOC), TEAE: 2 (16.7%) n (%)
  Neutropenia, grade ≥3 TEAE: 0 n (%)
  Oropharyngeal pain, TEAE: 0 n (%)
  Pain in extremity, any grade TEAE: 3 (25.0) n (%) and 3 (25.0%) n (%)
  Patients with a serious TEAE: 4 (33.3%) n (%)
  Peripheral edema, any grade TEAE: 4 (33.3) n (%) and 4 (33.3%) n (%)
  Pyrexia, any grade TEAE: 3 (25.0) n (%) and 3 (25.0%) n (%)
  Respiratory, thoracic and mediastinal disorders (SOC), TEAE: 1 (8.3%) n (%)
  Skin and subcutaneous tissue disorders (SOC), TEAE: 0 n (%)
  Vomiting, TEAE: 2 (16.7%) n (%)
1-week taper, neither treatment-related
  TEAEs with an outcome of death: 2 participants
1-week taper, staphylococcal pneumonia and pulmonary embolism
  Grade 5 TEAEs: 2 (16.7%) n (%)
2-week taper
  Grade ≥3 TEAEs, participants: 53.3%
  Nausea, participants: 20%
  Nervous system disorders: 26.7%
  TEAEs with an outcome of death: No deaths
2-week taper n=15
  Anemia, any grade TEAE: 2 (13.3) n (%) and 2 (13.3%) n (%)
  Anemia, grade ≥3 TEAE: 1 (6.7) n (%) and 1 (6.7%) n (%)
  Any TEAE: 15 (100)^ n (%) and 15 (100.0%) n (%)
  Any grade ≥3 TEAE: 8 (53.3) n (%) and 8 (53.3%) n (%)
  Arthralgia, any grade TEAE: 4 (26.7) n (%) and 4 (26.7%) n (%)
  Asthenia, any grade TEAE: 2 (13.3) n (%) and 2 (13.3%) n (%)
  Back pain, TEAE: 3 (20.0%) n (%)
  Blood and lymphatic system disorders (SOC), TEAE: 3 (20.0%) n (%)
  Blood and lymphatic system disorders (SOC), grade 3 or higher TEAE: 3 (20.0%) n (%)
  Bone pain, TEAE: 3 (20.0%) n (%)
  Bone pain, grade ≥3 TEAE: 1 (6.7) n (%) and 1 (6.7%) n (%)
  Chills, TEAE: 1 (6.7%) n (%)
  Constipation, TEAE: 3 (20.0%) n (%)
  Cough, any grade TEAE: 4 (26.7) n (%) and 4 (26.7%) n (%)
  Decreased appetite, TEAE: 1 (6.7%) n (%)
  Diarrhea, any grade TEAE: 3 (20.0) n (%) and 3 (20.0%) n (%)
  Dizziness, any grade TEAE: 1 (6.7) n (%) and 1 (6.7%) n (%)
  Erythema, any grade TEAE: 4 (26.7) n (%) and 4 (26.7%) n (%)
  Fatigue, any grade TEAE: 4 (26.7) n (%) and 4 (26.7%) n (%)
  Gastrointestinal disorders (SOC), TEAE: 7 (46.7%) n (%)
  General disorders and administration site conditions (SOC), TEAE: 10 (66.7%) n (%)
  Headache, any grade TEAE: 1 (6.7) n (%) and 1 (6.7%) n (%)
  Lymphopenia, grade ≥3 TEAE: 0 n (%)
  Metabolism and nutrition disorders (SOC), TEAE: 4 (26.7%) n (%)
  Muscle spasms, any grade TEAE: 0 n (%)
  Musculoskeletal and connective tissue disorders (SOC), TEAE: 9 (60.0%) n (%)
  Musculoskeletal and connective tissue disorders (SOC), grade 3 or higher TEAE: 1 (6.7%) n (%)
  Nasopharyngitis, any grade TEAE: 5 (33.3) n (%) and 5 (33.3%) n (%)
  Nausea, any grade TEAE: 3 (20.0) n (%) and 3 (20.0%) n (%)
  Nervous system disorders (SOC), TEAE: 4 (26.7%) n (%)
  Neutropenia, grade ≥3 TEAE: 3 (20.0) n (%) and 3 (20.0%) n (%)
  Oropharyngeal pain, TEAE: 3 (20.0%) n (%)
  Pain in extremity, any grade TEAE: 1 (6.7) n (%) and 1 (6.7%) n (%)
  Patients with a serious TEAE: 6 (40.0%) n (%)
  Peripheral edema, any grade TEAE: 0 n (%)
  Pyrexia, any grade TEAE: 2 (13.3) n (%) and 2 (13.3%) n (%)
  Respiratory, thoracic and mediastinal disorders (SOC), TEAE: 8 (53.3%) n (%)
  Skin and subcutaneous tissue disorders (SOC), TEAE: 5 (33.3%) n (%)
  Vomiting, TEAE: 2 (13.3%) n (%)
2-week taper, general physical health deterioration
  Grade 5 TEAEs: 1 (6.7%) n (%)
